Assay results reported in the DeepSol protein solubility set.

experiment: soluble on expression in E. coli; label from the status in PepcDB or PDB records

For “MGSDKIHHHHHHAVQNTITIRSRGAKVYNKNGNAIVDARDKNIVLKEGTVAEYYGEPKYMVWRGHKKASFYNIGGNRYLLGYNVASLNDKGTLSIYRDSYIYDKTGKRVEKNTVLRKGTAINYVDKLNEKIETEKNLPKFYYYNMAIQRTHEGMLWVKYSVLSVKYHIINGKEYYKIANNKYIRATNIGYINGRQLFTTEATVTMGKATTKDGKYYARNMNGKITKTILPYKPGQKVVVDRSFQHSSKSFWRIKGTNYYIFGPDIKKFPIQALRR”, which “soluble on expression in E. coli” value is on record?
Its value is “not soluble”.

Which “soluble on expression in E. coli” value does the source give for “MAFRSKFAVLDESWTYVRVRRGPRRQNLWIWNALIDGVPFFVTGDRDYNTFRLLWLSLPKCEVHYTDDYPIYQVLYHHVVGKKYTHTVESYNSFCRSHLVRLARDTKAVNRSRAMIDYSLDLLNVMYPQLEHHHHHH” here?
Its value is “not soluble”.

Which “soluble on expression in E. coli” value does the source give for “MAHHHHHHGPNTNPVAAWKALKEGNERFVAGRPQHPSQSVDHRAGLAAGQKPTAVIFGCADSRVAAEIIFDQGLGDMFVVRTAGHVIDSAVLGSIEYAVTVLNVPLIVVLGHDSCGAVNAALAAINDGTLPGGYVRDVVERVAPSVLLGRRDGLSRVDEFEQRHVHETVAILMARSSAISERIAGGSLAIVGVTYQLDDGRAVLRDHIGNIGEEV” here?
Its value is “soluble”.

For “MAEIHYLISDASKKVDVEAHVLRYWEEELELPIPRNDMGHRYYTDFHIRLFKQVKVLKEKGYQLKAIKTALAKSLQDGKVIIPSEVLEEDVIAALKETGIGEQDMKEQKGNENKNGEKRADEKVKDGQACEGGGEAGLTALDKDSVEALLAGEKMEQFQKVMNHIIGRAMEENSEKLSQDISYLVHDKLMKEMEYLMRVSDEREEERFKQLDEVIRAYQRDNQGRAEAAASVTGFPFFRFKKKKFGRNGNKL”, which “soluble on expression in E. coli” value is on record?
Its value is “not soluble”.

With “MDKEETKTKPRLLRYEEKKYEDVKPLETQPAEIAEKETLEYKTVRTFSESLKSEKTEDYLRESIIQQHMVSPEPASLKEKGKSRRKKDQTHACPNVRKARPVSYDRTEPKDDDVIRNIIRLREKLGWQTILPQHSLKYGSSKIAIQKITLKKPLEDDGEFVYCLPRKSPKSLYNPYDLQVINIVGSVKE” as the sequence, how does the “soluble on expression in E. coli” value read?
The value was “soluble”.

For “MGSDKIHHHHHHANVEVQKENFVFSIKGTDTLSLDKYELPSISPASKKPVMIFAFGGGFKGGDKADKGYIPYFEFLARNGFVVVSTDYRTTLKNLDPSKVSSPMDFIAALQHAIDTAVEDFYDATGFVINQSSDWNIDVEQIVASGSSAGAITVLQAEYDLCNGHELAKRLPAGFNYAGVISYAGAVSGVLPPHWEKMPCPIMLFHGDADKTVPFEQAAMENLGGLWGSSAVAKSLENLQASYYFYKVENAGHEISGLPMSRNQYDIMSFLSRQVLGDENLAITTDERVPGDTIVRKDFTVQDYILDNLR”, which “soluble on expression in E. coli” value is on record?
Its value is “not soluble”.

For “MGSDKIHHHHHHMGKVNYAAIDIGSNAVRLLIKSIDREAVQEKKIKKVMMLRVPLRLGFDVFSIGELSEKKADKLRRLMKAFRQLMKIYDVDDYRACATSAMRDARNGRTIIKKIEKDTGIRIEIIDGQEEARMIYNNHIECMEDRLGNYMYVDVGGGSTEINLLTNGELVWSVSYNIGTVRMLSNAVKEGTWQQMEEELMKVTEGVAAINIIGSGGNINKLFRLADKKDKKLQRLPVSSLQTVYDVLKPLTPEERVEAFSLKQDRADVIVPAAEIFLKIAEVVHAEYIYVPVIGLSDGIIDNLYAKSLEKEMKVE”, which “soluble on expression in E. coli” value is on record?
The value was “not soluble”.

Which “soluble on expression in E. coli” value does the source give for “MGSDKIHHHHHHMRRQLNGQMFVWLHVFACAARHLSFTRCAEELHITPGAVSQQMRQLEERLGYRLFLRRARGVELSAEGQRLAQTVAEAYGSIEAELLRLDAGEIRGTLRVRSIPSFLAKWLTPRLPRFQQRYPDIELRLVAEDSAQALTPGDFDLAIDLNDGSYPGMLSTPLLDEQIFPVCSPALLRGRPPLHGPADLAHYPLLHDITAWRGSSEYAEWEFYLEGIGAAGLDVRRGHTFNRNHLTIEAAIAGIGVAIARRTLLNDELERGALIVPFGVPIANHKRYVVHYPPGGLNQPGARAVHDWLVEEARGFRVLHPLNKE” here?
The value was “not soluble”.

Which “soluble on expression in E. coli” value does the source give for “NIQGRTARQTDYLFQIKKHDITFGIGPAGTGKTYLAVACAVDALERELVSRVILVRPAVEAGERLGFLPGDMVQKVDPYLRPLYDALYDLMGFEKVSKHFERGIIEIAPLAFMRGRTLNQSFIILDEAQNTTAEQMKMFLTRIGFGSKAVITGDITQIDLPKHQKSGLVEAERVLKNVNGIAFTRFRTEDVVRHPLVQRIVDAYEKYAPDK” here?
The value was “not soluble”.

With “MKRVAAVIEYDGSNFFGYQGQPDVRTVQGVIEDALERIFKQRIYTQAAGRTDTGVHANGQLIAFNCPNDRMTTEDIRNAMNANLPDDVYVKEVFEVPVNFHPRFDVTKRIYHYFILTSRQKNVFLRKYVWWFPYELDLDAMRKAVKYLEGTHDFTSFKTGSDERDPVRTIYRIRILRLKNDLVLIRVEGRSFLRRMVRNIVAALVKVGLKQWEPEKMKEVLEARDRSAAAGTAPAHGLYFYKVLF” as the sequence, how does the “soluble on expression in E. coli” value read?
The value was “soluble”.

With “AHHHHHHGSEEYYVCPECGSEDVEVIKERGREVTLRCNECGYVWMITLPKLREIPVIVSKHERSFREKAVLPEDEVIKVGDVIEIENDQVKVLSIELPGGKRVRKAKVAEIQTIWGESLTYPKVFGVSIYLPGGITQSFKVVVDREEEFVVGEVIEVGGYTFKVEMIKTEKKLMRSGKAKAENIVRLMGHAIKGRARRKLKIYEGYDSISAENQ” as the sequence, how does the “soluble on expression in E. coli” value read?
The value was “not soluble”.

Which “soluble on expression in E. coli” value does the source give for “MLADKVKLSAKEILEKEFKTGVRGYKQEDVDKFLDMIIKDYETFHQEIEELQQENLQLKKQLEEASKKQPVQSNTTNFDILKRLSNLEKHVFGSKLYD” here?
Its value is “not soluble”.

For “MGSDKIHHHHHHMKLVKTGILPLDTQLGGGMPAGSVVSVFEEPGAGADVLSYHFTVEGATHGENVFYLATDDSSEEIREYINLYFDLDEAVWENITLLSLRASMQQEEGEKDAKDFLRKTIYDPIGGIKTILSHEEFERVVINNFTYFLANYPIEDVIALIDVLSNYAKRNQSVVMLLVTKGMFDPRTETTVKHYSDGVIELTLKEVENEVQRRLKVVKFKGILVPKAILRYELTDKGIKMESVMRVL”, which “soluble on expression in E. coli” value is on record?
The value was “not soluble”.

For “SMSVKKPKRDDSKDLALCSMILTEMETHEDAWPFLLPVNLKLVPGYKKVIKKPMDFSTIREKLSSGQYPNLETFALDVRLVFDNCETFNEDDSDIGRAGHNMRKYFEKKWTDTFKVS”, which “soluble on expression in E. coli” value is on record?
The value was “soluble”.

With “MHGIDLHTHSNISDGTLSPSCLVDAAIACGIHTLALTDHDTMDGLETAIQQAQGHDIQIISGAEISSQWSRPNTKKAYGVHIVALNMQNPEPLLDALVIQKNIRAERAQQICQILQQCTGQDIYTDVLLKVEGEPDRITRTHIAKALVEKEIVARPQQAFDRFLKEGKRAYVKFDGLNLADTIRIIHESEGFAILAHPTRYDLSSTNVRYLIELFAKMGGDAVELPPSVDPVSTRQMIDRIIQQFDLKVSIGSDFHGENMPWIKLGHTPQPNPHQTGIWESFR” as the sequence, how does the “soluble on expression in E. coli” value read?
Its value is “not soluble”.

Which “soluble on expression in E. coli” value does the source give for “MSNPVTITEAAALHIKDMMKEHEEENAFLRVGVKGGGCSGLSYGMGFEHEKSESDSVFDQHGITVLVDKESLDIMNGTVIDYKQSMLGGGFTIDNPNAIASCGCGSSFRTATNAGKPEEC” here?
Its value is “soluble”.

For “MSKVLVLKSSILAGYSQSGQLTDYFIEQWREKHVADEITVRDLAANPVPVLDGELVGAMRPGDAPLTPRQQDALALSDELIAELKAHDVIVIAAPMYNFNIPTQLKNYFDLIARAGITFRYTEKGPEGLVTGKRAVVLSSRGGIHKDTPTDLIAPYLKVFLGFIGITDVNFVFAEGIAYGPEVAAKAQADAKAAIDSVVAA”, which “soluble on expression in E. coli” value is on record?
Its value is “soluble”.

For “PGPPQGPPQPVQQSKRLQQTQAQVEEVVDIMRVNVDKVLERDSKISELDDRADALQAGASQFEASAGKLKRKFWWKNCKM”, which “soluble on expression in E. coli” value is on record?
The value was “soluble”.

Which “soluble on expression in E. coli” value does the source give for “MSSDIQQIRIGLTNNHPCSYLADRMERVAVAIDPQMQTPETYEVLMANGFRRSGDTIYKPHCDHCQSCQALRIPAPDFVPSKSQKRLLKLLSQEFHWQLKPELDEDWYTLYARYIFARHRHGSMYPPNKMEFAKFARAKWLNTQYLHLYQGEKLVAIAVTDLLPNSASAFYTFYDPDISISLGTLAVLCQLNYCQQTKKQWLYLGYQIDECPAMNYKVRFNPHQRLVNQRWRGLEHHHHHH” here?
Its value is “soluble”.

Which “soluble on expression in E. coli” value does the source give for “SYHTGTAYGMIDLPRILRSITTFESFGKVKIGILKKGIQAIESLLVARHQMYSAVYMHPTVRIADTMIKRAVIKEIQEKNLDIKDLANMDDIALVSFLRISENYLMERIDRRNLYKNLITYSYFDLNPIEKWIFVNLDEKQILSLESRFYEEFGWDIFIDIYPIPKMEEHNVYIISDEGVKRLDEVSPLAQSLK” here?
Its value is “not soluble”.

With “MSSNYVMATKEGQMLLTQGKPMLDKDTGLLSYTDEQGNQKQINSDQVSQIVQRLEHHHHHH” as the sequence, how does the “soluble on expression in E. coli” value read?
The value was “not soluble”.

Which “soluble on expression in E. coli” value does the source give for “MGHHHHHHSHMRENNLHTVCEEAKCPNIHECWAVRRTATFMILGSVCTRACRFCAVKTGLPTELDLQEPERVADSVALMNLKHAVITAVARDDQKDGGAGIFAETVRAIRRKSPFTTIEVLPSDMGGNYDNLKTLMDTRPDILNHNIETVRRLTPRVRARATYDRSLEFLRRAKEMQPDIPTKSSIMIGLGETKEEIIEVMDDLLANNVDIMAIGQYLQPTKKHLKVQKYYHPDEFAELKEIAMQKGFSHCEAGPLVRSSYHADEQVNEASKKRQAQA” here?
The value was “soluble”.

Which “soluble on expression in E. coli” value does the source give for “MGSDKIHHHHHHMNSNPFVSVVMSVYNGGEFLKDAINSILSQSYKNFEFIIINDGSSDNFSEILELYDDERIKVLNNQENKGLVYSLNRGLLESIGKYIVRMDADDISLPNRIEKQVEFMEREPEVGVCGSYIEIFGDTIKRKVQRFPSNVNVNEAFLLFSTCLAHPSVIIRKSIVDKYKLRYDDRYLHAEDYAIWCQAVKYTKISNIREVLLKYRILESSVTRQANKNFQSRFDVHKSIYKDIFRNKGIDYTEKELYLHFIISDNNRFRNQALTIRPSEINAHLTKILSHYRGASNYKYIAFLVNKRGLSLSRWYSESRGFYFIMYLFKFLYYKIQIKK” here?
The value was “not soluble”.

Which “soluble on expression in E. coli” value does the source give for “MRELQTLLISCLKQERISGSMFRVLGKVVNHVVCEMFKHQDIAWDGLRDYIVSQSKTKFQRAVYIFQCLTTPLEDDEFVIHVMENLLPEIRIRLNPPRDLLVDNSCWVLAFTGAFCATIHLREFPSQAESVKEIANKMIDSVRELVEIGIEVGLVRRAFRDLENIVKNLNKWNGTGS” here?
Its value is “soluble”.

For “MLQYRIIVDGRVQGVGFRYFVQMEADKRKLAGWVKNRDDGRVEILAEGPENALQSFVEAVKNGSPFSKVTDISVTESRSLEGHHRFSIVYS”, which “soluble on expression in E. coli” value is on record?
Its value is “soluble”.

For “MHHHHHHPMEPEIKIVNVVVSTKIGDNIDLEEVAMILENAEYEPEQFPGLVCRLSVPKVALLIFRSGKVNCTGAKSKEEAEIAIKKIIKELKDAGIDVIENPEIKIQNMVATADLGIEPNLDDIALMVEGTEYEPEQFPGLVYRLDDPKVVVLIFGSGKVVITGLKSEEDAKRALKKILDTIKEVQEL”, which “soluble on expression in E. coli” value is on record?
Its value is “soluble”.

With “MSLRLALRQVDGAALALRRCGEAWAGQDVRIAYPPSHGCWLKVAGADGSWQGWLQPRAWLRHMAPELASLASAAGMDDRLSELIAACEAPLSWPVADMPLGRIVAGERREGSQLPQRPMLRMDTPQGEVWLEKAPAPAEAARDRVPGWLPMPLRFLLGDSMVSPSLLRRAKAGDVLLISRPAQTVSCNGRAIGTYQWTEEGIIMEWQNEMAAAAETRPLADLDRLPVRLEFVLQQSEVTLDELRELCRSNVLPLSADAERRVELRANGALLGRGELVQLDGRLGVEVAQWLGGSGDVEEGHHHHHH” as the sequence, how does the “soluble on expression in E. coli” value read?
Its value is “soluble”.

For “MSLEHILLPLDLSEVSKPLAISVAELASRHKSRVTLLHVIEEAMVIHVAAGYDVSSLIRSIEKNAREKLDKIKKLMMEKGANVVVYEDIPVGNPGTVISEVAEEVGATEIVMGSKGLGIFRILPLGSTVRETVKISRKPVIRLKTYKENGHVKVAYSPMLFRKILVGADRNTSKSMIDYAVNAASTDDGKVILAHIIEPPLEEPSYEVKNVFKYGEKAGEERGVEVEIVVARGRPDKMLTAIASQMDASSVLVGRTVERRLSELILGSTLDRLMTLCELPLIVYPLEGHHHHHH”, which “soluble on expression in E. coli” value is on record?
The value was “soluble”.
